Relative activity of maturated deamidase (% initial rate) data for 23 molecules are collected here from patent publication US20250215412A1 (NOVOZYMES A S, published 2025).

A value given as a limit tells only on which side of the number the result lay.

This assay concerns the target T1, Chryseobacterium sp-62563 deamidase polypeptide (second polypeptide, deamidase domain), wildtype (Chryseobacterium sp-62563).
T1 sequence: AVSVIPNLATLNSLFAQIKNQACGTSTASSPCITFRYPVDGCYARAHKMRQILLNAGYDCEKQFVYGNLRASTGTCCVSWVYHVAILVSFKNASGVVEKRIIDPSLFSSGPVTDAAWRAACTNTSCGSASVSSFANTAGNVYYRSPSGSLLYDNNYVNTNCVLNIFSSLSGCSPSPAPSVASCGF
As to the kind of experiment: cell-based or functional assay.

B1: Chryseobacterium sp-62563 propeptide D91G (protein)
chain: NQDPNLVAKESNETAMKDFGKTVPVGIEKEDGKFKISFMVTAQPYEIKDSKENAAYISMIKTAVENETPIHVFLKANTNEIAKVDKATDDGIRYFKSVFTKEVKEENRK
B1 showed a Relative activity of maturated deamidase (% initial rate) of 56.

B2: Chryseobacterium sp-62563 propeptide T88G (protein)
chain: NQDPNLVAKESNETAMKDFGKTVPVGIEKEDGKFKISFMVTAQPYEIKDSKENAAYISMIKTAVENETPIHVFLKANTNEIAKVDKAGDDDIRYFKSVFTKEVKEENRK
B2 gave a Relative activity of maturated deamidase (% initial rate) of 66.

B3: Chryseobacterium sp-62563 propeptide E67H (protein)
chain: NQDPNLVAKESNETAMKDFGKTVPVGIEKEDGKFKISFMVTAQPYEIKDSKENAAYISMIKTAVENHTPIHVFLKANTNEIAKVDKATDDDIRYFKSVFTKEVKEENRK
The molecule B3 returned a Relative activity of maturated deamidase (% initial rate) of 78.

B4: Chryseobacterium sp-62563 propeptide T88F (protein)
chain: NQDPNLVAKESNETAMKDFGKTVPVGIEKEDGKFKISFMVTAQPYEIKDSKENAAYISMIKTAVENETPIHVFLKANTNEIAKVDKAFDDDIRYFKSVFTKEVKEENRK
Molecule B4 returned a Relative activity of maturated deamidase (% initial rate) of 28.

B5: Chryseobacterium sp-62563 propeptide E67C (protein)
chain: NQDPNLVAKESNETAMKDFGKTVPVGIEKEDGKFKISFMVTAQPYEIKDSKENAAYISMIKTAVENCTPIHVFLKANTNEIAKVDKATDDDIRYFKSVFTKEVKEENRK
For B5, the Relative activity of maturated deamidase (% initial rate) turned out to be 46.

B6: Chryseobacterium sp-62563 propeptide T88V (protein)
chain: NQDPNLVAKESNETAMKDFGKTVPVGIEKEDGKFKISFMVTAQPYEIKDSKENAAYISMIKTAVENETPIHVFLKANTNEIAKVDKAVDDDIRYFKSVFTKEVKEENRK
The molecule B6 gave a Relative activity of maturated deamidase (% initial rate) of 51.

B7: Chryseobacterium sp-62563 propeptide E67V (protein)
chain: NQDPNLVAKESNETAMKDFGKTVPVGIEKEDGKFKISFMVTAQPYEIKDSKENAAYISMIKTAVENVTPIHVFLKANTNEIAKVDKATDDDIRYFKSVFTKEVKEENRK
With B7, the Relative activity of maturated deamidase (% initial rate) was 27.

B8: Chryseobacterium sp-62563 propeptide E67W (protein)
chain: NQDPNLVAKESNETAMKDFGKTVPVGIEKEDGKFKISFMVTAQPYEIKDSKENAAYISMIKTAVENWTPIHVFLKANTNEIAKVDKATDDDIRYFKSVFTKEVKEENRK
Molecule B8 registered a Relative activity of maturated deamidase (% initial rate) greater than 100.

B9: Chryseobacterium sp-62563 propeptide T88I (protein)
chain: NQDPNLVAKESNETAMKDFGKTVPVGIEKEDGKFKISFMVTAQPYEIKDSKENAAYISMIKTAVENETPIHVFLKANTNEIAKVDKAIDDDIRYFKSVFTKEVKEENRK
B9 showed a Relative activity of maturated deamidase (% initial rate) of 52.

B10: Chryseobacterium sp-62563 propeptide E67M (protein)
chain: NQDPNLVAKESNETAMKDFGKTVPVGIEKEDGKFKISFMVTAQPYEIKDSKENAAYISMIKTAVENMTPIHVFLKANTNEIAKVDKATDDDIRYFKSVFTKEVKEENRK
B10: the Relative activity of maturated deamidase (% initial rate) amounted to 37.

B11: Chryseobacterium sp-62563 propeptide T88K (protein)
chain: NQDPNLVAKESNETAMKDFGKTVPVGIEKEDGKFKISFMVTAQPYEIKDSKENAAYISMIKTAVENETPIHVFLKANTNEIAKVDKAKDDDIRYFKSVFTKEVKEENRK
In turn, B11 registered a Relative activity of maturated deamidase (% initial rate) of 33.

B12: Chryseobacterium sp-62563 propeptide F73E (protein)
chain: NQDPNLVAKESNETAMKDFGKTVPVGIEKEDGKFKISFMVTAQPYEIKDSKENAAYISMIKTAVENETPIHVELKANTNEIAKVDKATDDDIRYFKSVFTKEVKEENRK
With B12, the Relative activity of maturated deamidase (% initial rate) turned out to be 28.

B13: Chryseobacterium sp-62563 propeptide E67D (protein)
chain: NQDPNLVAKESNETAMKDFGKTVPVGIEKEDGKFKISFMVTAQPYEIKDSKENAAYISMIKTAVENDTPIHVFLKANTNEIAKVDKATDDDIRYFKSVFTKEVKEENRK
B13 registered a Relative activity of maturated deamidase (% initial rate) of 69.

B14: Chryseobacterium sp-62563 propeptide E67F (protein)
chain: NQDPNLVAKESNETAMKDFGKTVPVGIEKEDGKFKISFMVTAQPYEIKDSKENAAYISMIKTAVENFTPIHVFLKANTNEIAKVDKATDDDIRYFKSVFTKEVKEENRK
B14: the Relative activity of maturated deamidase (% initial rate) was 46.

B15: Chryseobacterium sp-62563 propeptide E67I (protein)
chain: NQDPNLVAKESNETAMKDFGKTVPVGIEKEDGKFKISFMVTAQPYEIKDSKENAAYISMIKTAVENITPIHVFLKANTNEIAKVDKATDDDIRYFKSVFTKEVKEENRK
B15: the Relative activity of maturated deamidase (% initial rate) amounted to 31.

B16: Chryseobacterium sp-62563 propeptide E67S (protein)
chain: NQDPNLVAKESNETAMKDFGKTVPVGIEKEDGKFKISFMVTAQPYEIKDSKENAAYISMIKTAVENSTPIHVFLKANTNEIAKVDKATDDDIRYFKSVFTKEVKEENRK
The molecule B16 registered a Relative activity of maturated deamidase (% initial rate) of 42.

B17: Chryseobacterium sp-62563 propeptide E67G (protein)
chain: NQDPNLVAKESNETAMKDFGKTVPVGIEKEDGKFKISFMVTAQPYEIKDSKENAAYISMIKTAVENGTPIHVFLKANTNEIAKVDKATDDDIRYFKSVFTKEVKEENRK
B17 returned a Relative activity of maturated deamidase (% initial rate) of 54.

B18: Chryseobacterium sp-62563 propeptide E67L (protein)
chain: NQDPNLVAKESNETAMKDFGKTVPVGIEKEDGKFKISFMVTAQPYEIKDSKENAAYISMIKTAVENLTPIHVFLKANTNEIAKVDKATDDDIRYFKSVFTKEVKEENRK
On to B18, for which the Relative activity of maturated deamidase (% initial rate) was 55.

B19: Chryseobacterium sp-62563 propeptide T88H (protein)
chain: NQDPNLVAKESNETAMKDFGKTVPVGIEKEDGKFKISFMVTAQPYEIKDSKENAAYISMIKTAVENETPIHVFLKANTNEIAKVDKAHDDDIRYFKSVFTKEVKEENRK
Turning to B19, the Relative activity of maturated deamidase (% initial rate) was 41.

B20: Chryseobacterium sp-62563 propeptide T88R (protein)
chain: NQDPNLVAKESNETAMKDFGKTVPVGIEKEDGKFKISFMVTAQPYEIKDSKENAAYISMIKTAVENETPIHVFLKANTNEIAKVDKARDDDIRYFKSVFTKEVKEENRK
The molecule B20 displayed a Relative activity of maturated deamidase (% initial rate) of 46.

B21: Chryseobacterium sp-62563 propeptide E67T (protein)
chain: NQDPNLVAKESNETAMKDFGKTVPVGIEKEDGKFKISFMVTAQPYEIKDSKENAAYISMIKTAVENTTPIHVFLKANTNEIAKVDKATDDDIRYFKSVFTKEVKEENRK
As for B21, the Relative activity of maturated deamidase (% initial rate) was found to be 40.

B22: Chryseobacterium sp-62563 propeptide E67K (protein)
chain: NQDPNLVAKESNETAMKDFGKTVPVGIEKEDGKFKISFMVTAQPYEIKDSKENAAYISMIKTAVENKTPIHVFLKANTNEIAKVDKATDDDIRYFKSVFTKEVKEENRK
The molecule B22 registered a Relative activity of maturated deamidase (% initial rate) greater than 100.

B23: Chryseobacterium sp-62563 propeptide E67R (protein)
chain: NQDPNLVAKESNETAMKDFGKTVPVGIEKEDGKFKISFMVTAQPYEIKDSKENAAYISMIKTAVENRTPIHVFLKANTNEIAKVDKATDDDIRYFKSVFTKEVKEENRK
The molecule B23 showed a Relative activity of maturated deamidase (% initial rate) of 95.
